From the domain aggregation screens of Martell et al. (2025)

Test: soluble fraction after stress (log2 fold change); higher = more stays soluble; pooled small domains, quantitative proteomics
Details: stress: pH 4
Summary of the method: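 How much of each domain stays soluble after acid stress, expressed as a fold change, is used to gauge aggregation propensity. Pooled custom libraries of small domains underwent pH 4 stress before high-throughput quantitative proteomics. A higher log2 value means more of the domain stayed soluble.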

Sequence | soluble fraction (log2)
HMSAIEIDAEKILNYLTDRGGKMPYGDTTAPEVIKDKFNISKAAFKRALGFLLRSNKIEQIDGWTYI | -0.375
HMREGLRHLRVRMPGGAGETLAMLYREGEVLSQSSDGAFIEVEIRVAQSVAGRLLQMPGVQLTEEVG | -0.871
HMIAKIEGQISYVGNRFLIVDVSGVGYKLFVTNEAISLSKVEESIKLWVHTAVRENSIDLYG | 0.22
HMVVYQRVHDEILQALKDNVYPVGTLLPPEPELERIYSVSRTTVRRAIAKLSEEGYVQVRQGYGTMVLKN | 0.22
HMQDVKRYLVNSNQLNVRTGPGKEFEISESLNKGDAVTLLHKESNGWWEVITSTGQGYVYSSMLTKDPW | 0.0322
HMSLEDNEVIQRMKVILDRFDEETAVDRTTAFKAVLDHIGKMDAESKTLEHMAEMLEALLDKVLEE | -0.371
HMSSQGSLEKGYSALLDGRLDDAALAYGAALAANPMERDALLGLAYVAHSKGRREEAQALYRKVLR | -0.53
HMENDYTQAQFVQDLDSGVVREVIIIPNREAPTGYARVVFGDVVRELYATDIREVEALAREHGYEPTVED | -0.499
HMNKFADLAGNIIYNENGVEVFNFGKYKGQPVAEVFKKDIGYYGWIQNADFPRYTKKVFTAIQLKSK | -0.0985
HMGSFFSKATAPVRTTGGDGLYKHGSIWFNTSTGRLFVYIPDDRYTGLLDTHNGDIGYWVDVS | -1.22
HMLAHSEFGARLRETRKRLGLSQSELGGDRYSGSYISHLESGRRAASAEVIEFLAGRLGVEVEELGM | -1.2
HMLAKYEIIKQDIIQMIEEKKFKPGDKIYSEGELKKIYNVSSTTVVRALQDLVLSGYLIRKQGEGTYVRK | 0.222
HMKYSNDFDKVSYSLGLSIASNLISSGVKTLNAEAFNDGLATVFEGRMPEINPDEANKILQNFFEGLQKE | -0.632
HMNDEFYAVVRESYAGYALVKPLDEDVGYDILSVSVKNLKVGDIIRLKVKNIKEIYPPEAEVLEVEVLQ | -1.59
HMPGDIRKAAILLMSLPREQAAQVLARLDPKQVEAVTIEIARLGTVTPDEQEQALKEFSQANPA | -0.141
HMSYGDLTGRTVVITGASKGIGARASRVLAQAGASVVGLARSVDELTALKYDLENDGLSFDFG | ≥ 0.43
HMYNMEELAGHTEKVYNSLPEELKLVIKLREIENMSYDEISLKTGMPIGTVRSRLHRAREILVDSLKDY | -0.491
HMQPRYMLIKTAILDAIERGEMKPGSQVPSENQLAQQHNVSRMTARRALSEMVDDGILMRSQGIGTFVSD | -0.591
HMRKIKEVLRLKFETGFSHERIAAAVGVSKGAVTKYVQRAVAAGLGWPLAPERDDAALEALLFPH | 0.0455
HMERFMEFVITDTQQGQRLDVVLTETTEHLGSRSHMQRSIRAGLVSIDGITTTRASTKVSSGQIIRVEPT | -0.629
HMTFTQFAESHGVIIKSLKASDKIQRGPTVAHPKSDNGAWLWDGNRGGVMAWDGDGQWYWFK | -0.108
HMTAYENSIPLNWVIQKGDAKGLPLSANTARLLIDIVGIDLMDLDHELEKISLYLSGESITEEMIKEHIRG | -1.01
HMETTMVEIKAEFTIRNRLDIPAMMEKAGYKDRGEFLSVLEKITGNYNWDRDVKKGDTFMVPSKLA | -0.335
HMTSHSFVITEEVGQRLDRFISDQLDTVSRTMIQKHIRSGAVVVNGKQVKSNYLLVLNDRINIALK | -1.22
HMIDNKIIRSLRQKRNMTLEELAKKANISVSYLSEIELGKKQPSLETINKLSQALNISREGLI | 0.22
HMDQPVIDVREFGARGDGKQDDAPAIQAAVRLAEQLGGGRVVVPATREFYLLGSTIRIRGHHVTLTGPGAR | 0.0605

Sequence | soluble fraction (log2)
HMNSDQMKEHLDNLVDMAKKNDNTLIDTEIVNYFVGKPDIELNTDMMTKIFDYLDEHHVAVLS | -1.85
HMKREETLKALATKNANYVARSGRRYSFEPMNPYERRIIHTAVQEIEGVTSRSIGSGMDRRVLIEPEGGV | -0.234
HMKEIIFRGIGEFILDYKSLVIEFLNKNNYANLSMDAPVDEVNKAVANNMLNEDFVTELLLFQRRVE | -2.16
HMRSDSEIKEDVLDELMWQPNIDETQIGVIVEKGVVTLTGFVDAYAKKTAALDAVKNVKGVKAVANDIEV | -0.0968
HMTVDHDERRSMILEAFMRLAAREGLHAVSLRGVAAEAGISLRLVQYYFETKARLMQSGLTALET | -0.501
HMQAESLTVVRSAELKADRFLDAATLQTLQTGQVVESLRTESGWVQVRIAGQQGWVRAMNVKGA | -0.569
HMGSFISADEALAKALSHAGLDQSAIRELEMDSELDDDVPHYSIDFKSGNLEYEYEISATDGSVLKFEQD | -0.0935
HMSHYDILEVDPKASATEIKQSFRKKSLQYHPDRNKSSDAHEYMTKITEAYNILGDKDKRRHYDMELKL | 0.172
HMSSGNLESLLNKLHNEDYFVRLDAVKALGALGDPGAIDYLIEMLSENGIMRGWVANSLAALGEAQWKKII | -1.44
HMTPLFNQGEVLKGFVLQTGTNNRVLLQIGTAKVLADAQTPLKAGEQLTLRVEATGPRTVLQILG | 0.101
HMVQYVDFVKRMIEELPWWHRRMLELKYLDGLTYEEIADELQVPVGTVKGTLHRAKELFQEILKNN | -1.71
HMKEILLITGKGLHSGQDDVYKSAQLSKLRYSVPEFIKSNLEISQLILSVETPLQKDGGDGALLIK | -0.192
HMGDGRVGVITASIAYEYAKEVFPEGTSFLKLGLTFPLPMDLIRDFASKVEKLYVIEELEPL | -1.72
HMRDRYEYLKELRLYLSPLGRTEEDRVIEYYAELIGDKIESGIPENGVLSQLGTPRELADKILAETQEY | -0.384
HMHGETLAAKRREEIKVRIQNIYDQSEQIFGYRKITATLRSQGVVVSEKLVSQLMRELEISSVS | -0.896
HMDEPADVAIFDGFRQMSEDELKKLYESLNLAMTFKDFLHIQNYFKNEENREPSVTEIRVLDTYWSDH | -0.321
HMGIVAQLPTIRVNGKTLYYYDAQSGDNIYSIAEKLGVTVEDIRANNPGVADGVKPRMRLFFPTSLAK | 0.0671
HMGYSSKISELLTKYNMNASELAQKVGVPPTTIYSIIKRDSKKADIEVLIKIAKLFNVPVEYF | 0.186
HMELPVNSIRVPDVVGLSLREAMQAMTDAGVPWQSVQAKGVGFVSRQSPEAGTVTQLRRVRLELKLF | -0.00108
HMQEAGKWLKKLRTERKITLEQLSKKTGLSVGFLSQFERGLTSIAIDTLEKIAAVFNVTIDYFISP | 0.22
HMVKSSVTEVISMINALPVTVKPEDKADIISARMAYDTLTEDEKALVTNYEILTAAETRFNELIATT | -0.101
HMTDIVPNLIGKSLKDAIQSVEKSNLKAIFDGHGIVVSQQPRPGSPIPARKIMKVTLSPDYR | 0.135
HMEISEILNPPLVTAMAERYPEVDVSYYRDKYILYYESREHKITDHRRNFEKWLLVESQKEEN | -1.66
HMPSPEMLKETEKRKAEEIYRSQINLFIDDYHRLKGQYPLLEDIIDNKKDSIPIEILREISISILKNYFE | -0.926
HMAMLSKREAEILKLTAKGHSSTDIAQRLTISVNTVEFHRRRIMQKLNAANVAEAVGKAAELGLFF | -0.47
HMKSVTAPLPGTVTQILVKVGDAVKAGDTVLMLEAMKMENSITAEAAGTVKAIRVEKGAQVQGGDVLIEM | -0.594

Sequence | soluble fraction (log2)
HMEGSRASMDGQVPGKTSYLEWLARQPAQRQDQVLGAERGRLFRAGEIDLADMFTDKGEWISLERLKQLS | -0.284
HMQEINLIGVTGNDLERSALVKLLDGEIIKLSVGDNLNGGRVVDISAVTLTYLKSGQSITLKLPK | 0.116
HMSNNILEISSNKKNMKIQENKNLVESYYSKTENLYSFKLVFKNKRDLDQFLKEVYEDDSTINYKTSS | -0.524
HMASQVERGAVVVTDQRIFFIGVSSEGIEVHGTKIFGMSEKAPLYSHMKGLKKGDSFQFNGLKYVIQDIY | -0.916
HMSTPTVDTKTKLDLYNLLYKKDLNYLDAYNFVLDNFGSDNIDIMFKMLGLDFTNWVIENKPE | 0.0493
HMKMTFGENLHKLRKIYRLSQEDVASAINLKRSDIAAVEKGDRVLNDEELDKLADFIGIDIVDLL | -0.853
HMEEDPIIIAQRFLNIFRQLHIFSEEKKESFNKMLLEQPAEIRGALRSLPGGGLLQDYIDDLESKA | -0.711
HMEPVQPVMYSEFIESVERGEVVEATIQGDKIIATDRSGNRYTVVGSAKDPQLVGQLLERNVAFKFVEE | -0.971
HMSAERFDFRIGPELAGKRFDQALAEALPQFSRSRLSTWIKDGRATLNGATMRPKDSVHAGDTVVVNAE | 0.255
HMQSVEELLDAIGDERLLHILLEADRKTLQIVVLKMMGYAPKEIGSHIGMPEQTVYTKLRRLREKIKKI | -1.07
HMGPFYFDQDGKAYSGLLNRNGEILYFADPFNAAVKNTTKTIDGKTYTFNQNGRATSIDGIPLEPP | -0.17
HMRLSVVDLQDSLRGLEYPAGKGDLINHAREHNASADVIAVLEQFSERTYRSAADVGEEFGRV | -0.166
HMVNIAVMTVSDTRTEADDKSGSLLVSKIEGDGHVLADRAIITDDVPRIIAKLKEWIESPQVDVVVT | -0.606
HMAWAVDVGVVGLFPGKAVLVIDGGAPRTVPVGANVGGVRLLAVDQGSATVEIGGKRQRLAIGQHAH | 0.22
HMVITPESVKEQVLAIISKSPAQGFNYKQISKRLNINDPSERKMVSDILRELSESGTIEEINKGKYRAKV | -0.055
HMTMSFSELLRGLRKSRGMSQAELATAVGLSQAQVSQIETGKLLPSPELIEKLAALYGIALGSA | 0.0703
HMDELVYVPNITGKTVEEARTELQKRDLGLNIAGHQFSDEFGKGRIISQDPAAGSRLKVNRSISVIVSSGQ | 0.00524
HMIADDLKSLEGVDQDMLRDLAEAGINTRDDLAELAIDELIEITGVSTEEAEKVIMAARAHWFEEES | -1.74
HMEAFELTPREKQVLQLLVQGKAYKIIAADLDITYDTVRAHIKKIYEKLHVGSMTEAVAKAIQHKL | 0.194
HMNQDIIEIGNNIQKIRKKNGISQSVLAEKIDVAGNSIYRMEGATTVMGVDKLINIADALNTSPMDILPAR | 0.0428
HMKKDNLKKIKSIDEDIENELFKLGIYHFEQISIWSSKNAEWIENFLNLPNYVRANQWVEQAKILK | -0.885
HMNHYTEEYILKRMKDFFTTHAYITRRDIESLFGFRRSYATKWLKHFRESGVLKQSGPVNSAVYLL | -1.12
HMEAQFIDINDVRIGTYVYVDLGWIKHPFALNSFKITSRDQIDTLIKLGVKRIRWSPEKSDS | -0.483
HMARPLHVDALIHLGTEIGSRVGGAHAGPHLLVAGHSPMSELVYARLLGIPTLGWMRGQLTFVNLSK | 0.108
